This note sets out measurements from patent publication US20100111851A1 (UNIVERSITY OF TOKYO, published 2010).

Experiment [1] has as its target T1, whole human PRG-3 with a C-terminal V5 tag, inducibly expressed on PRG-3/293T-Rex cells (human, UniProt Q8TBJ4 1-325).
T1 construct: Membrane protein with 6 transmembrane regions; also called PRG-3/293 cells; PRG3+/293 cells; not shown: V5 tag inserted at the C-terminus
T1 sequence: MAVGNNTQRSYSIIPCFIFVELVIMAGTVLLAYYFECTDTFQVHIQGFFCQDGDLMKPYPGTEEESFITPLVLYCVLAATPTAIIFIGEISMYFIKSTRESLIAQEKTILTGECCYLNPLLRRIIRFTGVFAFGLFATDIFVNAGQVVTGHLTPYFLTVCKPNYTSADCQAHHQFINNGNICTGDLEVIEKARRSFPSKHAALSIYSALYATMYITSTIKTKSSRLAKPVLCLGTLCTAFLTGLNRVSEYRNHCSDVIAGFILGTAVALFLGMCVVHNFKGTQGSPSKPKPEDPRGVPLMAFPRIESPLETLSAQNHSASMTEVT
The experiment is described as follows: flow cytometry, hybridoma supernatant on PRG-3-induced against non-induced 293 cells. Here is the method:
The cell line expressing human PRG-3 suspended in FACS buffer (2% FBS/PBS) was diluted to 1×10⁶ cells/mL using FACS buffer, and aliquoted at 50 μL/well into a Falcon 353910 round-bottom 96-well plate. Hybridoma culture supernatant diluted to a suitable concentration was added to the wells containing the cells and reacted for 60 min on ice. Next, the cells were rinsed once with FACS buffer. Goat F(ab′)₂ fragment anti-mouse IgG (H+L)-FITC (Beckman Coulter) was added to the wells containing the cells as a secondary antibody, and reacted for 30 min on ice. The supernatant was removed by centrifugation after the reaction, and the cells suspended in 100 μL of FACS buffer were subjected to flow cytometry. A FACS Calibur (Becton Dickinson) was used for the flow cytometry. A gate for the viable cell population was established with a forward scatter-side scatter dot blot, an FL1 histogram was made of the cells contained in the population, and binding activity thereof was evaluated.

For experiment [2], the target named is T2, human PRG-3 (without tag) on cells (human, UniProt Q8TBJ4 1-325).
T2 construct: also called PRG-3 protein; PRG-3/BaF3
T2 sequence: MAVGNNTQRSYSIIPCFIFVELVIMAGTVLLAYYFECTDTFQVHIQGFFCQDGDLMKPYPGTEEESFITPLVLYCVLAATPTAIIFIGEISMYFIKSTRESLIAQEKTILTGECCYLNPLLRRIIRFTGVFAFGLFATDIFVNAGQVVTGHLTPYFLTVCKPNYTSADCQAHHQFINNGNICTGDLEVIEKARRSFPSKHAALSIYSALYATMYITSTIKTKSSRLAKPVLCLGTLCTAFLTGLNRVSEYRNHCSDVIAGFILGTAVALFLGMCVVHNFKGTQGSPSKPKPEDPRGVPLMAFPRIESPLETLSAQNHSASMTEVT
Description: flow cytometry, mixture of the two antibodies on Ba/F3 cells transfected with pMCN-PRG-3. On the procedure:
A Ba/F3 cell transformant line was established by gene transfer of the pMCN-PRG-3 expression vector constructed in example 2 into Ba/F3 cells, which is a murine pro B cell line, by electroporation under conditions of 0.33 kV and 950 μF. The Ba/F3 cells are IL-3 dependent cells, and they were cultured in RPMI-1640/10% FBS/penicillin-streptomycin containing 1 ng/mL IL-3. The cells that underwent gene transfer were selected by RPMI-1640/10% FBS/penicillin-streptomycin containing IL-3 and 500 μg/mL Geneticin® (Invitrogen). Cells expressing PRG-3 from the Geneticin®-resistant lines were selected by flow cytometry. […] Lines O-A5, O-D3, and O-F5 were established as Ba/F3 cell lines expressing PRG-3 (FIG. 6). Additionally, line O-F5 was cloned by the limiting dilution method and the OF5-G8 line with a high level of expression was also obtained.

B1: anti-PRG-3 monoclonal antibody 4F1 (antibody, mouse IgG2b, kappa, V domains shown)
VH: QVQLQQPGAELVKPGASVKLSCKASGYTFTSYWMNWVKQRPGRGLEWIGKIHPSDSETHYNQKFKSKATLTVDKSSSTAYIQLNSLTSEDSAVYYCTRGYNNYLDYWGQGTTLTVSS
VL: DIVLTQSPASLAVSLGQSVTISCRASESVEYYGTSLMQWYQQKPGQPPKLLIYGASNVESGVPARFSGSGSWTDFSLNIHPVEEDDIAIYFCQQSRKVPSTFGGGTKLEIKR
notes: also called MR4F1
For the molecule B1, the binding result in experiment [1] and in experiment [2] was “binds” in each case.

B2: anti-PRG-3 monoclonal antibody 4F12 (antibody, mouse IgG2a, kappa, V domains shown)
VH: QVQLQQPGAELVKPGASVKLSCKASGYTFTSYWMNWVKQRPGRGLEWIGKIHPSDSETHYNQKFKSKATLTVDKSSSTAYIQLSSLTSEDSAVYYCARGYSNYLDYWGQGTTLTVSS
VL: DIVLTQSPASLAVSLGQRVTISCRASESVEYYGTSLMQWYQQKPGQPPKLLIYGASNVESGVPARFSGSGSGTDFSLNIHPVEEDDIAMYFCQQSRKVPSTFGGGTKLEIKR
notes: Tested as hybridoma culture supernatant and as protein G purified antibody; also called MR4F12
On to B2, for which the binding result in experiment [1] and in experiment [2] was “binds” throughout.
